Results on 1 molecule are retold here after patent publication US20140193417A1 (LUDWIG INSTITUTE FOR CANCER RESEARCH, published 2014).

The assay has as its target T1, sodium-dependent phosphate transport protein 2b (NaPi2b, SLC34A2), human, endogenous (human, UniProt O95436 1-690).
T1 construct: whole, on cells; Naturally expressed, N-glycosylated membrane protein of human cancer cell lines (OVCAR-3, SK-RC-18 and others) and tissues; used on intact cells (MHA, flow cytometry), in cell or tissue lysates (Western blot, immunoprecipitation) and in tissue sections; also called MX35 antigen; NaPi2b/MX35
T1 sequence (looked up): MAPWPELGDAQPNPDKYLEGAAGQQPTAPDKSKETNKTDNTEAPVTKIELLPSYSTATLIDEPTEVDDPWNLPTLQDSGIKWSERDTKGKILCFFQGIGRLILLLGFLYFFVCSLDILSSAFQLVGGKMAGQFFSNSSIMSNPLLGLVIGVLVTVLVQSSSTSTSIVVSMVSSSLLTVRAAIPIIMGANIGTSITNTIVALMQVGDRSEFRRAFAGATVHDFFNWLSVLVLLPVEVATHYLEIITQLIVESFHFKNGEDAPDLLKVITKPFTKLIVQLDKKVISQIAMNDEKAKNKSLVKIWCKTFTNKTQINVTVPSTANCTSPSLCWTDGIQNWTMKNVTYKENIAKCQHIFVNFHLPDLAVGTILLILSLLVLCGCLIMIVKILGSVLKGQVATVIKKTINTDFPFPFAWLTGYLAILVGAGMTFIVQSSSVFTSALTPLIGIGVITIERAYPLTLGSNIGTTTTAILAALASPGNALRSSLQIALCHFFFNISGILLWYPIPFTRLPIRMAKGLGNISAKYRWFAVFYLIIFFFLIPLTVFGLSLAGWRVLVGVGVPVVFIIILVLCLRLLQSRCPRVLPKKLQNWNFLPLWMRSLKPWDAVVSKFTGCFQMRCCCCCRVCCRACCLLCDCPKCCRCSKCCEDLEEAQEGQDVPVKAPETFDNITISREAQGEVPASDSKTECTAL
Put plainly: flow cytometry on SK-RC-18 cells, 20 ug/ml antibody. As for the experimental part:
The binding efficacy of humanized MX35 antibody, synthesized and purified as described above, was compared with the murine version of the MX35 antibody, using fluorescein isothiocyanate—FITC—marker to assess the specific binding to different cells lines in flow cytometry. The cell lines listed in TABLE 4 were trypsinized, adjusted to a concentration of 2.5×10⁵ cells and distributed in 1.5 mL test tubes. After centrifugation the pellet was resuspended in 100 uL of primary antibody (either murine MX35, humanized MX35, hu3S193 or Zenapax®) diluted in the same culture medium used to cultivate the cells in the concentration of 20 μg/ml. In the case of controls “cells only” and FITC-conjugates, the cells were resuspended in 100 μL of medium culture. The mixtures were incubated for 1 h at 4° C. and then washed twice with 200 μL of phosphate buffered saline. The cells were resuspended in 100 μL of secondary antibody-FITC conjugated, either murine or human depending on the MX35 antibody version used. The control “cells only” tube received medium culture only. […] Staining of the cells with the fluorescent probes was measured in a fluid stream in the flow cytometry Guava® ExpressPro (Guava EasyCyte Mini System). For each individual experiment 10,000 events were acquired and counted.

B1: humanized MX35 (huMX35) monoclonal antibody (antibody, V domains shown)
VH: QVQLVQSGAEVVKPGASVKMSCKASGYTFTGYNIHWVKQAPGQGLEWIGAIYPGNGDTSYKQKFRGRATLTADTSTSTVYMELSSLRSEDSAVYYCARGETARATFAYWGQGTLVTVSS
VL: DIQMTQSPSSLSASVGDRVTITCSASQDIGNFLNWYQQKPGKTVKVLIYYTSSLYSGVPSRFSGSGSGTDYTLTISSLQPEDFATYYCQQYSKLPLTFGQGTKLELKR
notes: Produced in Per.C6 cells, protein A purified; also called Human MX35; humanized MX35 antibody
B1: the binding result is “binds”.
